Source: the supplement of paper PMC12764529
± gives the half width of the 95% confidence interval.

How the values were obtained:
[1] = folding stability dG unfold from trypsin proteolysis; higher = more stable
In short: (§1)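 Designed mini-proteins (under 80 residues, no cysteine) in a PA-tagged cDNA display construct were digested with trypsin and chymotrypsin. Each protease was used at 11 concentrations (threefold dilutions) plus a no-protease condition, followed by sequencing. K50 was inferred by Bayesian fitting of sequencing counts, and unfolding free energy was derived against a sequence-predicted unfolded-state K50 and a shared folded-state K50, per protease or combined. Only designs with AlphaFold2 dimer inter-PAE above 15 were kept.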

[2] = folding stability dG unfold from chymotrypsin proteolysis; higher = more stable
In short: as §1

[3] = folding stability dG unfold (combined trypsin and chymotrypsin); higher = more stable
In short: as §1

Row | Sequence | folding stability dG unfold [1] | folding stability dG unfold [2] | folding stability dG unfold [3]
1 | SAGGSAKAEEIAKLLKELGFKEVKIEKDKETNKVTITVKKKDGSEIKITIDKKTKKIVKIEIKPKKSAGGSA [r15_648_TrROS_Hall] | 1.82 ± 0.067 kcal/mol | 1.78 ± 0.27 kcal/mol | 1.99 ± 0.25 kcal/mol
2 | SAGGSAKDILDQLKISDVHESNGMRTITLEMPGNNLPPDEIREIFEELGYEVEINPKNGRITFTIPSAGGSA [r15_599_TrROS] | 2.09 ± 0.051 kcal/mol | 1.83 ± 0.02 kcal/mol | 1.95 ± 0.039 kcal/mol
3 | SAGGSAKEEIRLVIEVDGKLIEITIPKDKITKVEFDKETGKITITVKVNGKELKLVFTDGKAKLVESAGGSA [r15_598_TrROS_Hall] | 2.27 ± 0.14 kcal/mol | 2.6 ± 0.12 kcal/mol | 2.47 ± 0.17 kcal/mol
4 | SAGGSAKEIKAEVKVDPETGTVTVKVYYDGKLVAEATATVEPNGEIKEVNFFFEVDPETGKLIVTGSAGGSA [r15_770_TrMRF] | 2.73 ± 0.12 kcal/mol | 3.07 ± 0.059 kcal/mol | 2.97 ± 0.066 kcal/mol
5 | SAGGSAKEIKIEVVKVEYDKETKKVTVTLKIEVNGKKIEIKIEVDMTPEEVEEKVKKLAEELLKKLSAGGSA [r15_979_TrROS_Hall] | 3.15 ± 0.2 kcal/mol | 3.03 ± 0.14 kcal/mol | 3.14 ± 0.25 kcal/mol
6 | SAGGSAKEIKPGEKIKVRNKETGKWFEATVTEVKKLENGELYVKVEVTIDGKTYTVTIPLKDIEVVSAGGSA [r15_62_TrROS_Hall] | 4.3 ± 0.37 kcal/mol | 4.72 ± 0.3 kcal/mol | 4.88 ± 0.55 kcal/mol
7 | SAGGSAKEIKVEITYDPETNTITIKVYKDGKLVAEMTMKIEVNGKLIEVKVTLYLDPKTKKLVVKPSAGGSA [r15_770_TrROS_Hall] | 1.94 ± 0.081 kcal/mol | 3.3 ± 0.048 kcal/mol | 2.96 ± 0.13 kcal/mol
8 | SAGGSAKFKIVKIEKIEIEENGTIKIKVKLEDGSTFEIEIKVKIIPPPKPKKISLEELSEEERKKLSAGGSA [r15_41_TrROS_Hall] | 1.29 ± 0.053 kcal/mol | 2.11 ± 0.097 kcal/mol | 1.8 ± 0.13 kcal/mol
9 | SAGGSAKGPKTVTYEFKIKYGDKYYLIKVTVKLHEVKYDPKTKKYTLNLKPNDKLEIKVEIYELDDSAGGSA [r15_1040_TrMRF] | 2.29 ± 0.26 kcal/mol | 4.09 ± 0.086 kcal/mol | 3.7 ± 0.3 kcal/mol
10 | SAGGSAKIEIIKDPETGTYTIRLEKEIKPGQTLTITDENGETWKITSVSVEEVNGELYVTVKVEKVSAGGSA [r15_838_TrROS_Hall] | 2.24 ± 0.048 kcal/mol | 3.542 ± 0.026 kcal/mol | 3.19 ± 0.056 kcal/mol
11 | SAGGSAKIKIITENGEELEIEVETKEELEKAVEALKKLLPPDAEIEVEVVEKDGKLIVKIKVKKKPSAGGSA [r15_80_TrROS_Hall] | 1.54 ± 0.13 kcal/mol | 2.17 ± 0.12 kcal/mol | 1.85 ± 0.31 kcal/mol
12 | SAGGSAKIKITIEYDEETGEVRIKIEVDGKEYEITLSREELANMTIEELAKKLGVEIEEVEIYPVPSAGGSA [r15_801_TrROS_Hall] | 3.35 ± 0.24 kcal/mol | 2.92 ± 0.28 kcal/mol | 3.35 ± 0.3 kcal/mol
13 | SAGGSAKIRYIKVLLRFPPKGEKKIIVIPIENIPEDRPEELIELAKAIAEAFVEGTGAEVEGIEISSAGGSA [r15_1013_TrMRF] | 4.34 ± 0.2 kcal/mol | 3.88 ± 0.072 kcal/mol | 4.05 ± 0.13 kcal/mol
14 | SAGGSAKITVEVVVRSLEELEALVKALAPPGMEVEVKIVSVERRTVEVNGEKREVLVVRVEIEVKPSAGGSA [r15_95_TrROS_Hall] | 4.61 ± 0.37 kcal/mol | 3.09 ± 0.17 kcal/mol | 3.9 ± 0.33 kcal/mol
15 | SAGGSAKKKIIEIKIKVKTKEEAKEAIEKLSEELKKKIKKIEIVEIKEKDGEYYVKIKIEVPPNEKSAGGSA [r15_244_TrROS_Hall] | 1.97 ± 0.063 kcal/mol | 2.32 ± 0.075 kcal/mol | 2.25 ± 0.14 kcal/mol
16 | SAGGSAKKKTIELTIVIKIKKKPGETAEEIAKKILDALKKLLPPGAKIEIEVEVKDDYIVIKVKIESAGGSA [r15_739_TrROS_Hall] | 2.49 ± 0.14 kcal/mol | 2.76 ± 0.09 kcal/mol | 2.69 ± 0.13 kcal/mol
17 | SAGGSAKKLKITIVADSEEEARRLAEELARLLRELLPDGSELEVEIEVRVFRPPPPPLPSLEELLASAGGSA [r15_663_TrROS_Hall] | 3.2 ± 0.21 kcal/mol | 3.83 ± 0.12 kcal/mol | 3.49 ± 0.18 kcal/mol
18 | SAGGSAKKPKIKIKIKITNENGEKIEIEIEAETEEEALEAAKKLAEELAKKPNIKEVKIEITEIEPSAGGSA [r15_698_TrROS_Hall] | 1.74 ± 0.067 kcal/mol | 2.19 ± 0.1 kcal/mol | 2.07 ± 0.096 kcal/mol
19 | SAGGSAKKPKPIYLKLTITLSEEEAKKLAEELAEELKKLFPDVEIVEIKVEKDENGNVTVTIYVRLSAGGSA [r15_718_TrROS_Hall] | 3.14 ± 0.22 kcal/mol | 4.57 ± 0.14 kcal/mol | 4.25 ± 0.28 kcal/mol
20 | SAGGSAKKVEKVTVTVLIEKDGKLYLVRVTVTRPKVKYDKKTGKFTVTLKPGEKVEIKVEVVELPESAGGSA [r15_1040_TrROS_Hall] | 2.65 ± 0.21 kcal/mol | 3.7 ± 0.12 kcal/mol | 3.62 ± 0.24 kcal/mol
21 | SAGGSAKPNEKVKIRIINEDGEEIEIEVEVKPGEKIYLLENGEEVEVKPGEKIEFPPGAKILVEKVSAGGSA [r15_152_TrROS_Hall] | 1.11 ± 0.034 kcal/mol | 1.07 ± 0.02 kcal/mol | 1.1 ± 0.12 kcal/mol
